Ends that are not written are not given here. * marks the point of attachment. Biotin = O=C1N[C@H]2[C@H](CS[C@H]2CCCCC(=O)*)N1

T1: KIAA0807 (PDZ domain)-GST fusion protein (human, UniProt Q6P0Q8 1104-1192)
T1 construct: also called K807; KIAA807; not shown: glutathione S-transferase encoded by vector pGEX-3X (Pharmacia)
T1 sequence: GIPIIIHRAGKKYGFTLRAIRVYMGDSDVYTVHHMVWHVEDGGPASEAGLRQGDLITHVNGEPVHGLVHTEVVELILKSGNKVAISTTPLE

T2: GST-CASK PDZ domain fusion protein (Homo sapiens, UniProt O14936 486-575)
T2 construct: also called Homo sapiens CASK protein
T2 sequence: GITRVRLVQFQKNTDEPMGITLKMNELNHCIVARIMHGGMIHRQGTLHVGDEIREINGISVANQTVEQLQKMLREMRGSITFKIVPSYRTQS

T3: GST-PDZK1 fusion protein (PDZ domains 2-4) (Homo sapiens, UniProt Q5T2W1 134-457)
T3 construct: not shown: glutathione S-transferase encoded by vector pGEX-3X (Pharmacia)
T3 sequence: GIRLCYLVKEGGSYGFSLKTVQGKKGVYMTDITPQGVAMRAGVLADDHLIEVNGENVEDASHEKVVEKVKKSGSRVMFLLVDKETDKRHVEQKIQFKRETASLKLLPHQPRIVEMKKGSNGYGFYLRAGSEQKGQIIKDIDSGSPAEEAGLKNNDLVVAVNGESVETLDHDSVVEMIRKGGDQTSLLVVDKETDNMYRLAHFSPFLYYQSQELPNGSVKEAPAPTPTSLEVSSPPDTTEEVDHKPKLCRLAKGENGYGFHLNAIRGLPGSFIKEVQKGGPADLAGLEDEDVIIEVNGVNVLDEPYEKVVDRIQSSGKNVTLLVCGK

T4: MINT3 PDZ-GST fusion protein
T4 construct: Order of GST and PDZ part and limits not seen in the excerpts
T4 chain: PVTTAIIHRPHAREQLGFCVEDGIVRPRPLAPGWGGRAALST

T5: GST-MPP1 PDZ domain fusion protein (Homo sapiens (Human), UniProt Q00013 67-152)
T5 construct: also called p55; 55 Kd erythrocyte membrane protein; not shown: glutathione S-transferase encoded by vector pGEX-3X (Pharmacia)
T5 sequence: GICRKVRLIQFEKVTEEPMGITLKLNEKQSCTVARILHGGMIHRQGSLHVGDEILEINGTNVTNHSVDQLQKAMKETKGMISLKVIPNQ

T6: GST-mouse syntenin fusion protein (Mus musculus, UniProt O08992 108-286)
T6 construct: also called Mus musculus Syntenin; not shown: glutathione S-transferase encoded by vector pGEX-3X (Pharmacia)
T6 chain: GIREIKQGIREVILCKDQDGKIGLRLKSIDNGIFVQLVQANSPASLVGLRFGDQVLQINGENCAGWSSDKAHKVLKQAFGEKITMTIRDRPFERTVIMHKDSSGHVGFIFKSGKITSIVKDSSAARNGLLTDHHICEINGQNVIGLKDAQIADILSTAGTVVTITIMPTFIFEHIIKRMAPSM

T7: X11β PDZ-GST fusion protein (Rattus norvegicus (Rat), UniProt O35431 560-745)
T7 construct: Order of GST and PDZ part and limits not seen in the excerpts
T7 chain: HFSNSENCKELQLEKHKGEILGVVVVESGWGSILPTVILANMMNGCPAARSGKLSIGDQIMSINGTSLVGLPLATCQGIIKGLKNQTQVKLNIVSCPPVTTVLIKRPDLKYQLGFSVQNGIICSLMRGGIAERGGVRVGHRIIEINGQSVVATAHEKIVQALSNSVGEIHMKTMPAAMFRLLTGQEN

T8: GST-PTN-4 PDZ domain fusion protein (Homo sapiens (Human), UniProt P29074 517-605)
T8 construct: also called protein-tyrosine phosphatase meg1; not shown: glutathione S-transferase encoded by vector pGEX-3X (Pharmacia)
T8 sequence: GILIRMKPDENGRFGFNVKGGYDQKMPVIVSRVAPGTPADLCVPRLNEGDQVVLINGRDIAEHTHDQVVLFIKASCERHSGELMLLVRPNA

T9: GST-TAX-IP40 PDZ domain fusion protein (human, UniProt Q6B4M5 150-252 (rat entry))
T9 construct: also called TAX40; not shown: glutathione S-transferase encoded by vector pGEX-3X (Pharmacia)
T9 sequence: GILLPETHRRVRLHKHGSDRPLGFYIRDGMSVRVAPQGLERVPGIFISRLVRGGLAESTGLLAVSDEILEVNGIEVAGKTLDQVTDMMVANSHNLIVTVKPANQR

T10: K559 PDZ-GST fusion protein (Homo sapiens (Human), UniProt Q9Y6V0 4489-4593)
T10 construct: Order of GST and PDZ part and limits not seen in the excerpts
T10 sequence: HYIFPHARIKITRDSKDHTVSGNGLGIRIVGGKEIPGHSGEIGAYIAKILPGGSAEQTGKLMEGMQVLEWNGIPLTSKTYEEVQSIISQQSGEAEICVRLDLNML

T11: GST-LIM protein PDZ domain fusion protein (Human, UniProt Q96HC4 2-85)
T11 construct: also called Human LIM protein; not shown: glutathione S-transferase encoded by vector pGEX-3X (Pharmacia)
T11 sequence: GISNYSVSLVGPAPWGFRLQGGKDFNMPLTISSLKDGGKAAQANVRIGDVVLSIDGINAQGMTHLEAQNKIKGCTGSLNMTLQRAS

T12: GST-RGS12 PDZ domain fusion protein (human, UniProt O14924 17-85)
T12 construct: also called human regulator of G-protein signalling 12; not shown: glutathione S-transferase encoded by vector pGEX-3X (Pharmacia)
T12 sequence: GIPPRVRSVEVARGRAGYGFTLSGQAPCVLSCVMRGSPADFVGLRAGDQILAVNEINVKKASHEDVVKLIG

T13: GST-cytohesin binding protein PDZ domain fusion protein (Homo sapiens (Human), UniProt O60759 74-165)
T13 construct: also called CBP; not shown: glutathione S-transferase encoded by vector pGEX-3X (Pharmacia)
T13 sequence: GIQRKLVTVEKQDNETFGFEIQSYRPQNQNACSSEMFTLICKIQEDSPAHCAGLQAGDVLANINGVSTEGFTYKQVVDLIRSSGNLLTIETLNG

B1: CC CKR-1R C-terminal peptide AA41L (peptide)
peptide: Biotin-LERVSSTSPSTGEHELSAGF
notes: Only the last four residues are seen in the excerpts
B2: CD95 (Fas) C-terminal peptide AA13L, biotinylated (peptide)
peptide: Biotin-KDITSDSENSNFRNEIQSLV
notes: also called CD95 (Apo-1/Fas); AAI3L
B3: CC CKR-2 C-terminal peptide AA42L (peptide)
peptide: Biotin-GKGKSIGRAPEASLQDKEGA
notes: as for B1
B4: CD166 C-terminal peptide AA20L, biotinylated (peptide)
peptide: Biotin-DLGNMEENKKLEENNHKTEA
notes: also called CD166 (CD6L)
B5: FceRIb C-terminal peptide AA25L, biotinylated (peptide)
peptide: Biotin-YSATYSELEDPGEMSPPIDL
notes: also called FceRlb; FcεRβI
B6: CD83 C-terminal peptide AA47L, biotinylated (peptide)
peptide: Biotin-VTSPNKHLGLVTPHKTELV

T15 sequence (P29475 11-100 limits assumed): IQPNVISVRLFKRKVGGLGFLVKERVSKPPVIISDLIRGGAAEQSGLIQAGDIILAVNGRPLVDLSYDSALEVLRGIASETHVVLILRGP

The target of the first assay is T14, NSP PDZ-GST fusion protein (Homo sapiens (Human), UniProt Q92743 370-466).
T14 construct: The label NSP is not explained in the excerpts
T14 sequence (Q92743 other isoform, or with tags, fused parts or gaps limits assumed): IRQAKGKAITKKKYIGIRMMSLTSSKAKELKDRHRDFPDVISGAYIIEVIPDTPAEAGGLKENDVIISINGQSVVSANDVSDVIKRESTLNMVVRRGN
The assay is described as follows: A/G assays.
As to B1, the binding result was “no binding”.
The same measure, in the same setting: as for B2, the entry is “no binding”; as for B3, “no binding”; as for B4, “no binding”.
For the molecule B5, the binding result is listed as “no binding”.
B6: the binding result is “no binding”.

Another assay has as its target T15, NOS1 PDZ-GST fusion protein (Homo sapiens (Human), UniProt P29475 11-100).
T15 construct: Order of GST and PDZ part and limits not seen in the excerpts
The assay is described as follows: A/G assays.
On to B1, for which the binding result is listed as “no binding”.
The same measure, in the same setting: as for B2, the entry is “no binding”.
Still for that read-out and setting: as for B3, the entry is “no binding”; as for B4, “no binding”.
In the case of B5, the binding result is recorded as “no binding”.
Same read-out and setting: as for B6, the entry is “no binding”.

For a further assay, the target named is T1, KIAA0807 (PDZ domain)-GST fusion protein. The assay is described as follows: A/G assays.
With B1, the binding result is “no binding”.
The same measure, in the same setting: the result for B2 reads “no binding”; that for B3, “no binding”.
On to B4, for which the binding result is given as “no binding”.
On the same count and under the same terms, the result for B5 reads “no binding”; that for B6, “no binding”.

In another assay the target is T2, GST-CASK PDZ domain fusion protein. As to the kind of experiment: A/G assays.
Take B1: the binding result is “no binding”.
Same read-out and setting: as for B2, the entry is “no binding”.
Regarding B3, the binding result is “no binding”.
Take B4: the binding result is listed as “no binding”.
In the case of B5, the binding result was “no binding”.
Same read-out and setting: the result for B6 reads “no binding”.

The target in the next assay is T3, GST-PDZK1 fusion protein (PDZ domains …). The assay is described as follows: A/G assays.
As for B1, the binding result is given as “no binding”.
The same measure, in the same setting: as for B2, the entry is “no binding”; as for B3, “no binding”.
The same measure, in the same setting: the result for B4 reads “no binding”.
B5: the binding result was “no binding”.
Still for that read-out and setting: as for B6, the entry is “no binding”.

For a further assay, the target named is T4, MINT3 PDZ-GST fusion protein. As to the kind of experiment: A/G assays.
On to B1, for which the binding result was “no binding”.
Same read-out and setting: as for B2, the entry is “no binding”; as for B3, “no binding”.
As for B4, the binding result is given as “no binding”.
Same read-out and setting: as for B5, the entry is “no binding”; as for B6, “no binding”.

Another assay has as its target T5, GST-MPP1 PDZ domain fusion protein. As to the kind of experiment: A/G assays.
Turning to B1, the binding result was “no binding”.
On the same count and under the same terms, the result for B2 reads “no binding”; that for B3, “no binding”; that for B4, “no binding”.
Still for that read-out and setting: as for B5, the entry is “no binding”; as for B6, “no binding”.

The target of another assay is T6, GST-mouse syntenin fusion protein. The assay is described as follows: A/G assays.
In the case of B1, the binding result was “no binding”.
In the case of B2, the binding result was “no binding”.
As to B3, the binding result is “no binding”.
The same measure, in the same setting: as for B4, the entry is “no binding”.
On the same count and under the same terms, as for B5, the entry is “no binding”; as for B6, “no binding”.

The target in the next assay is T7, X11β PDZ-GST fusion protein. The assay is described as follows: A/G assays.
B1: the binding result is recorded as “no binding”.
On the same count and under the same terms, the result for B2 reads “no binding”; that for B3, “no binding”; that for B4, “no binding”.
Take B5: the binding result is reported as “no binding”.
On the same count and under the same terms, the result for B6 reads “no binding”.

The target in a further assay is T8, GST-PTN-4 PDZ domain fusion protein. As to the kind of experiment: A/G assays.
Consider B1, for which the binding result is recorded as “no binding”.
For the molecule B2, the binding result is “no binding”.
Turning to B3, the binding result is on record as “no binding”.
The same measure, in the same setting: the result for B4 reads “no binding”; that for B5, “no binding”.
With B6, the binding result was “no binding”.

In a further assay the target is T9, GST-TAX-IP40 PDZ domain fusion protein. The assay is described as follows: A/G assays.
As to B1, the binding result is “no binding”.
Consider B2, for which the binding result is reported as “no binding”.
On the same count and under the same terms, the result for B3 reads “no binding”; that for B4, “no binding”; that for B5, “no binding”.
On the same count and under the same terms, as for B6, the entry is “no binding”.

A further assay addresses T10, K559 PDZ-GST fusion protein. As to the kind of experiment: A/G assays.
On to B1, for which the binding result is “no binding”.
On to B2, for which the binding result is listed as “no binding”.
The same measure, in the same setting: as for B3, the entry is “no binding”; as for B4, “no binding”; as for B5, “no binding”.
The same measure, in the same setting: as for B6, the entry is “no binding”.

For a further assay, the target named is T11, GST-LIM protein PDZ domain fusion …. As to the kind of experiment: A/G assays.
Take B1: the binding result is given as “no binding”.
Same read-out and setting: as for B2, the entry is “no binding”; as for B3, “no binding”; as for B4, “no binding”.
Same read-out and setting: the result for B5 reads “no binding”.
On the same count and under the same terms, the result for B6 reads “no binding”.

For another assay, the target named is T12, GST-RGS12 PDZ domain fusion protein. The assay is described as follows: A/G assays.
In the case of B1, the binding result was “no binding”.
Consider B2, for which the binding result is “no binding”.
The same measure, in the same setting: the result for B3 reads “no binding”.
B4: the binding result is listed as “no binding”.
Same read-out and setting: the result for B5 reads “no binding”; that for B6, “no binding”.

The target in the next assay is T13, GST-cytohesin binding protein PDZ …. The assay is described as follows: A/G assays.
As for B1, the binding result is reported as “no binding”.
On the same count and under the same terms, as for B2, the entry is “no binding”; as for B3, “no binding”.
As to B4, the binding result is listed as “no binding”.
Still for that read-out and setting: as for B5, the entry is “no binding”; as for B6, “no binding”.

The values above are taken from patent publication US20050037969A1 (ARBOR VITA, published 2005).
